Patent publication US20240044881A1

Experiments:
[1] = molecular target: Type I ClyA-CS nanopore (Salmonella typhi) (UniProt Q8Z727)
[2] = molecular target: Type II ClyA-CS nanopore (Salmonella typhi) (UniProt Q8Z727)
[3] = molecular target: Type I ClyA-CS nanopore (Salmonella typhi) (UniProt Q8Z727); assay: single-channel current recording, planar lipid bilayer, -35 mV
[4] = molecular target: Type II ClyA-CS nanopore (Salmonella typhi) (UniProt Q8Z727); assay: as above
[5] = molecular target: Type III ClyA-CS nanopore (Salmonella typhi) (UniProt Q8Z727); assay: as above
[6] = molecular target: Type I ClyA-CS nanopore (Salmonella typhi) (UniProt Q8Z727); assay: single-channel current recording, planar lipid bilayer, -150 mV
[7] = molecular target: Type II ClyA-CS nanopore (Salmonella typhi) (UniProt Q8Z727); assay: as above

Which HT Dwell time at -150 mV [1] does the source give for “human thrombin (from UniProt P00734 328-622) (enzyme)” here?
The HT Dwell time at -150 mV was 1 ms.

What about the HT Dwell time at -150 mV [2] of the same substance?
The HT Dwell time at -150 mV was 235 ms.

What about the HT Level 1 at -35 mV, IRES % (residual current) [3] of the same substance?
The HT Level 1 at -35 mV, IRES % (residual current) was 56%.

What about the HT Level 2 at -35 mV, IRES % (residual current) [3] of the same substance?
The HT Level 2 at -35 mV, IRES % (residual current) was 23%.

And the HT Occupancy of L2 at -35 mV, % [3]?
Its HT Occupancy of L2 at -35 mV, % is 30%.

What about the occupancy of the more superficial binding site (level 1) at -35 mV, % [3] of the same substance?
The occupancy of the more superficial binding site (level 1) at -35 mV, % was 70%.

And the HT Level 1 at -35 mV, IRES % (residual current) [4]?
The HT Level 1 at -35 mV, IRES % (residual current) was 68%.

What about the HT Level 2 at -35 mV, IRES % (residual current) [4] of the same substance?
Its HT Level 2 at -35 mV, IRES % (residual current) is 31%.

And the HT Level 2 at -35 mV, IRES % (residual current) [5]?
The HT Level 2 at -35 mV, IRES % (residual current) was 32%.

And the HT Occupancy of L2 at -35 mV, % [5]?
Its HT Occupancy of L2 at -35 mV, % is 100%.

What about the duration of HT blockades at -35 mV [5] of the same substance?
The duration of HT blockades at -35 mV was 55 ms.

And the HT Level 2 (-150 mV), IRES, % (residual current) [6]?
The HT Level 2 (-150 mV), IRES, % (residual current) was 23%.

And the HT Occupancy of L2 at -150 mV, % [6]?
Its HT Occupancy of L2 at -150 mV, % is 100%.

What about the HT Level 2 (-150 mV), IRES, % (residual current) [7] of the same substance?
The HT Level 2 (-150 mV), IRES, % (residual current) was 31%.

What about the HT Occupancy of L2 at -150 mV, % [7] of the same substance?
Its HT Occupancy of L2 at -150 mV, % is 100%.
